Assays:
[1] = molecular target: T1, Biotinylated CD96 antigen (human, UniProt P40200-2 22-503, limits assumed, biotinylated); assay: competition ELISA, antibody B premixed with biotinylated CD96; competitor (coated antibody A): ch1720
T1 sequence (looked up): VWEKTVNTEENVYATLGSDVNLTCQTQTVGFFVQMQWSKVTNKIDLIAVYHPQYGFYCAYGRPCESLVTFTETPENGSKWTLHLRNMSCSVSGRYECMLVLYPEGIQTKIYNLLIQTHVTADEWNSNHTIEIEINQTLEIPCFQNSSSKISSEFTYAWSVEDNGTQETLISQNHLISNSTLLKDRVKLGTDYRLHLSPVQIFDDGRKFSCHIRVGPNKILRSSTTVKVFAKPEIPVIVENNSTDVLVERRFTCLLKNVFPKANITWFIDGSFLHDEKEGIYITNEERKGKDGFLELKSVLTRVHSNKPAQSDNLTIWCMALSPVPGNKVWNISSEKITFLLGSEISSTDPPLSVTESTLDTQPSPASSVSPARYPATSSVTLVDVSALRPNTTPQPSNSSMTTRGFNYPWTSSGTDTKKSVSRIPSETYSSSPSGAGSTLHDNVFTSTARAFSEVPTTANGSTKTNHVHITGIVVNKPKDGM
Procedure: (§1) Competitive assays of different antibodies binding to CD96 protein were used to classify binding epitopes of the antibodies. The specific experimental methods are as follows:
(§2) Antibody A was diluted to a concentration of 2 μg/ml with PBS buffer (Shanghai Yuanpei Biotechnology Co., Ltd. Cat No. B320), pH 7.4, added to a 96-well microtiter plate (Corning, Cat No. CLS3590-100EA) at a volume of 50 μl/well, and coated at 4° C. overnight. After discarding the liquid, 250 μl/well of 5% skim milk (BD skim milk, Cat No. 232100) blocking solution diluted with PBS was added, and the plate was incubated at 37° C. for 3 hours. After blocking, the blocking solution was discarded, and the plate was washed 5 times with PBST buffer (pH 7.4 PBS containing 0.05% tween-20) and stored for later use. Antibody B was diluted to 40 μg/ml and 8 μg/ml with 1% BSA, and Biotinylated CD96 antigen was simultaneously diluted to 4 μg/mL. Subsequently, antibody B and antigen were mixed in a 1:1 volume ratio, pre-incubated at 37° C. for 45 minutes, added into the enzyme plate coated with antibody A, thus incubating the plate in an incubator at 37° C. for 1.5 hours. After incubation, the plate was washed for 5 times with PBST, and 50 μl/well of HRP-labeled streptavidin (Sigma, Cat No. 52438) diluted with sample dilution was added, followed by incubating the plate at 37° C. for 1 hour. After washing the plate 5 times with PBST, 50 μl/well of TMB chromogenic substrate (KPL, Cat No. 52-00-03) was added for color development, followed by adding 50 μl/well of 1M H₂SO₄ to stop the reaction. The absorption value was read at 450 nm with a NOVOStar microplate reader, and the OD value was used to determine whether A and B CD96 antibodies compete with each other. Antibodies that compete with each other fall into the same class of antibodies, otherwise belong to different classes of antibodies (see FIG. 3 and Table 18).

[2] = molecular target: T1, Biotinylated CD96 antigen; assay: competition ELISA, antibody B premixed with biotinylated CD96; competitor (coated antibody A): h1718-012
Procedure: as §1, §2

[3] = molecular target: T1, Biotinylated CD96 antigen; assay: competition ELISA, antibody B premixed with biotinylated CD96; competitor (coated antibody A): h1719-014
Procedure: as §1, §2

[4] = molecular target: T1, Biotinylated CD96 antigen; assay: competition ELISA, antibody B premixed with biotinylated CD96; competitor (coated antibody A): h1722-010
Procedure: as §1, §2

[5] = molecular target: T1, Biotinylated CD96 antigen; assay: competition ELISA: antibody B pre-incubated with biotinylated CD96 antigen, added to a plate coated with antibody A, HRP-streptavidin, OD450; competitor: coated h1719-014 (named by the legend paragraph 84)
Procedure: as §1, §2

[6] = molecular target: T2, CD96 epitope peptide #4 (62-81) (human); assay: peptide ELISA ('-' indicates no binding, table note)
T2 peptide: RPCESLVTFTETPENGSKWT
Procedure: (§3) The epitopes recognized by anti-CD96 antibody were detected by the assay of binding the antibody to different polypeptide fragments of CD96 protein. The fragments of different polypeptides of the CD96 antigen were coated on the microtiter plate. The signal density after the antibody was added was used to judge the binding activity of the antibody and the polypeptide. The specific experimental method is as follows:
(§4) The polypeptides were diluted to a concentration of 20 μg/ml with PBS buffer (Shanghai Yuanpei Biotechnology Co., Ltd. Cat No. B320), pH 7.4, added to a 96-well microtiter plate (Corning, Cat No. CLS3590-100EA) at a volume of 50 μl/well, and coated at 4° C. overnight. After discarding the liquid, 250 μl/well of 5% skim milk (BD skim milk, Cat No. 232100) blocking solution diluted with PBS was added, and the plate was incubated in an incubator at 37° C. for 3 hours. After blocking, the blocking solution was discarded, and the plate was washed 5 times with PBST buffer (pH 7.4 PBS containing 0.05% tween-20). 50 μl/well of different concentrations of the antibodies to be tested (hybridoma purification antibody or humanized antibody) diluted with sample dilution was added, and the plate was incubated in an incubator at 37° C. for 2 hours. […] After washing the plate 5 times with PBST, 50 μl/well of TMB chromogenic substrate (KPL, Cat No. 52-00-03) was added, the plate was incubated at room temperature for 5-15 min, followed by adding 50 μl/well of 1M H₂SO₄ to stop the reaction. The absorption value was read at 450 nm with a microplate reader (Thermo Scientific MuLtiskan MK3), and the epitopes that CD96 antibody can recognize were analyzed.

[7] = molecular target: T3, CD96 epitope peptide #9 (137-156) (human); assay: as above
T3 peptide: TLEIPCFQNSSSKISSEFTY
Procedure: as §3, §4

[8] = molecular target: T4, CD96 epitope peptide #10 (149-170) (human); assay: as above
T4 peptide: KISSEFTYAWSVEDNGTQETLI
Procedure: as §3, §4

[9] = molecular target: T5, CD96 epitope peptide #19 (280-299) (human); assay: as above
T5 peptide: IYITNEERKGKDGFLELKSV
Procedure: as §3, §4

B1: h1718-012 (antibody, V domains shown)
VH: EVQLVQSGAEVKKPGASVKVSCKASGYTITDYNMNWVRQAPGQRLEWIGVINPSYGITDYNQNFKDRVTITVDTSASTAYMELSSLRSEDTAVYYCAIQLRLPGYFDVWGQGTTVTVSS
VL: DIQMTQSPSSLSASVGDRVTITCKASQDINQYLNWFQQKPGKAPKTLIYRANRLVDGVPSRFSGSGSGQDYTLTISSLQPEDFATYYCLKYDEFPYTFGGGTKVEIK
notes: Only variable regions are tied to this name
competition (percent) [1]: 103% | competition (percent) [2]: 100% | competition (percent) [3]: 94.8% | competition (percent) [4]: -11.1% | IC50 (read off the curve) [5]: ~0.4 nM

B2: h1722-010 (antibody, V domains shown)
VH: EVQLVQSGAEVKKPGSSVKVSCKASGGTFSDYWMHWVRQAPGQGLEWIGMLHPNSGTTSFNEKFKIRVTITADKSTSTAYMELSSLRSEDTAVYYCASDYSGPFAYWGQGTLVTVSS
VL: DIQLTQSPSSLSASVGDRVTITCSASSSVNYIHWYQQKPGKAPKRWIFDTSKLASGVPSRFSGSGSGTDYTLTISSLQPEDFATYYCQQWRSNPLTFGQGTKLEIK
notes: Only variable regions are tied to this name; also called M722-010
competition (percent) [1]: -11.5% | competition (percent) [2]: -3.5% | competition (percent) [3]: 8.5% | competition (percent) [4]: 100%

B3: ch1719 (antibody, human IgG4 S228P, kappa, V domains shown)
VH: QVQLKESGPGLVAPSQSLSITCTVSGFSLISYGVSWVRQPPGKGLEWLGVIWGDGNTNYHSVLISRLSIRKDDSKSQVFLKLNSLQTDDTATYYCAKNNYYGSRYGYPMDYWGQGTSVTVSS
VL: DIVMTQSHKFMSTSVGDRVSITCKATQDVGTAVAWYQQKPGHSPKLLIYWASTRHTGVPERFTGSGSGTDFTLTIDNVQSEDLADYFCQQYGSSVLTFGAGTKVELRR
notes: also called chimeric antibody corresponding to m1719
binding result [6]: no binding | binding result [7]: no binding | binding result [8]: no binding | binding result [9]: no binding

B4: ch1721 (antibody, human IgG4 S228P, kappa, V domains shown)
VH: QVQLKESGPGLVAPSQSLSITCTVSGFSLISYGVNWVRQPPGKGLEWLGVIWGDGSTNYHSALISRLSISKDDSKSQVFLNLNSLQTDDTATYYCAKNYFYGSRYGYAMDSWGQGISVTVSS
VL: DIQMTQSPASLSAAVGETVTITCRASENIYSSLAWYQQKQGKSPQLLVYNAKTLIETVASRFSGSGSGTQYSLKINSLQPEDFGSFYCQHHYGTPYTFGGGTKLEIKR
notes: also called chimeric antibody corresponding to m1721
binding result [6]: no binding | binding result [7]: no binding | binding result [8]: no binding | binding result [9]: no binding

B5: h1719-010 (antibody, V domains shown)
VH: EVTLKESGPVLVKPTETLTLTCTVSGFSLSSYGVSWVRQPPGKGLEWLGVIWGDGNTNYHSVLISRLTISKDTSKSQVVLTLTNMDPVDTATYYCAKQNYYGSRYGYPIDYWGQGTTVTVSS
VL: DIQMTQSPSSVSASVGDRVTITCKATQDVGTAVAWYQQKPGKAPKLLIYWASTRHTGVPSRFSGSGSGTDFTLTISSLQPEDFATYYCQQYGSSVLTFGGGTKVEIK
notes: as for B1
IC50 (read off the curve) [5]: ~0.4 nM

B6: h1719-014 (antibody, V domains shown)
VH: EVTLKESGPVLVKPTETLTLTCTVSGFSLSSYGVSWVRQPPGKGLEWLGVIWGDGNTNYHSVLISRLTISKDTSKSQVVLTLTNMDPVDTATYYCAKNYYYGSRYGYPLDYWGQGTTVTVSS
VL: DIQMTQSPSSVSASVGDRVTITCKATQDVGTAVAWYQQKPGKSPKLLIYWASTRHTGVPERFSGSGSGTDFTLTISSLQPEDFATYFCQQYGSSVLTFGGGTKVEIK
notes: Only variable regions are tied to this name; also called M719-014
competition (percent) [1]: 67.7% | competition (percent) [2]: 44.3% | competition (percent) [3]: 100% | competition (percent) [4]: 28.6%

B7: ch1720 (antibody, human IgG4 S228P, kappa, V domains shown)
VH: EFQLQQSGPELVKPGASVKISCKASAYSLTDYNMNWVKQSNGKSLEWIGVINPSYGISSYNQKFKGKATLTVDQSSSTAYMHLNSLTSEDSAVYYCARQLRLPGYFDVWGTGTTVTVSS
VL: DIKMTQSPSSKNASLGERVTITCKASQDINSYLNWFQQKPGKSPKTLIYRASRLVDGVPSRFSGSGSGQDYSLTISSLEYEDMGIYYCLKYDEFPYTFGGGTKLEIKR
notes: also called chimeric antibody corresponding to m1720
binding result [6]: no binding | binding result [7]: no binding | binding result [8]: no binding | binding result [9]: no binding | competition (percent) [1]: 100% | competition (percent) [2]: 94.4% | competition (percent) [3]: 92.3% | competition (percent) [4]: -2.4% | IC50 (read off the curve) [5]: ~1 nM

B8: h1721-003 (antibody, V domains shown)
VH: EVTLKESGPVLVKPTETLTLTCTVSGFSLSSYGVNWIRQPPGKALEWLGVIWGDGSTNYHSALISRLTISKDTSKSQVVLTLTNMDPVDTATYYCAKNYFYGSRYGYAMDSWGQGTTVTVSS
VL: DIQMTQSPSSLSASVGDRVTITCRASENIYSSLAWYQQKPGKAPKLLIYNAKTLIEGVPSRFSGSGSGTDFTLTISSLQPEDFATYYCQHHYGTPYTFGGGTKVEIK
notes: Only variable regions are tied to this name; also called M721-003
competition (percent) [1]: 92.6% | competition (percent) [2]: 73.6% | competition (percent) [3]: 96% | competition (percent) [4]: -0.3% | IC50 (read off the curve) [5]: ~0.4 nM

Reference: patent US20200347130A1 (JIANGSU HENGRUI MEDICINE, published 2020)
